Assay: soluble on expression in E. coli; label from the status in PepcDB or PDB records

Sequence	soluble on expression in E. coli
MNKKSSSMVNMPAPREPINQKIDTNNALVLNHNAIYEQRLAEITQSNTCDKAIVTVNPYGTAPLSLYLGVWMDEAAALEINVVDSEATTEEVRYQYDVHPGANLIPVCGMVSAVNNQITLRLASQIVGQYTVMTDALPPTDSANVSLGFPIISVSCPAQQASLMEEGLYFSTYFDRYNLAFDHNGIVRWYVSQEIPSYNFVRMDNGHFLATSQGINHCLNMYEFDIMGRVYTVYLLDNEFHHSILPIENNLAIAPSEYSNGRPDGYSTGKDGVSIINLSTGLEVAYYDMLYVMDYSRSPRPSGSAPGQDVSMDDWLHINQSYINEPNNLLICSGRHQSAIFGVNVDSGELRFIMANHEDWSDEFKQYLLTPVDDDGVPLYDLTSPGGIDAADKNFWTWGQHNIVEIPNDEPGILEFMVFDNGNYRSREDAKSLLPLDNFSRVVQFKINLNTMTVTRPYEYGKTEVGNRGYSSFVSAKHLLTNGHLVIHFGATTVDEFEHTITAQPGSSDLVDPDEGQQALGRLVLQEINKETKEVLFEAMVTSGYFKNEETNGTNYRYDISAFRVYKMPLFALEHHHHHH	soluble
GPGSMHPGLPRAFPDTEWQTVADIFRRRAPVSFLAPNSSASATADPAAAAEAWVQQEIGYYEANYTTVEDLNVCVTTFNVGCKKPVLPLTSLACLTSGGGGADGAPVRPTDLIVVGLQEVDMSATALFKQETEASAPWVAGLNAAIGASRCSSTAASSSSGAGASPYYAFPPKQLVGLLLCVFIRRPLLSAVSESSTATVATGALGSMGNKGAVGFHLVLHRTSICIITAHLAAGQSNVSKRNEDINTILKSMDFNAARRAEMQISASASMPMDESVFLELHPRDHDIIIVAGDLNYRLRLPYETAVHLANAGQFSELLQYDELATEMKSPHTPWLNFINFTPTHMPTYRFDIGTDAYDTSEKRRVPSYTDRICMWSRRKSMESRVRLDRLSALMEVRSSDHKPVQALARIPISVEVPAQKAQVISSLREKVAAVGLAQASSAKISLSTSKVNFQAQSFHHCGAQETVTVQNSGDCVAVVRVVRQREGDYSEGTWLRATPLELAILPGESQDVVIETAIDPRCMTWLAAWSPYQGRGRVSLTSVLLFCCRNGPVQAVECQCLLSPSVFGNGLDSIALLQDKPCVEAYAQKADFEEVVRQVRPHVPKELWYLAHVIAQHPREGGLFTRSTDKDVCCRIMELLDTKNAPLPAGTDVHCAAECLLAFLKNLLEPVVPYAQYTTALAAGRAKGKAPLQFLRQLPTMHANVWIYVMSLLNYLLRPVHSCDNELDANFLAHIFSAVLIVRPTNAQGAIPARLQQGGGVDQQVRQQLQQESDDALALVAYFLSTPPSMLAGVE	not soluble
MSLIEPDHPDLSIGQQCKLLSIARSSYYYEPKGETEQNLGLMRRIDEQFLETPFFGVRQMTWHLRNDGHLVNEKRIRWLMRLMGLMPIYQKPNTNRPTKGHKTYPYLLRGLRVERPNQVWCSDITYLPMRRGFLYLVAIMDWHTRKVLSWRISNTLEAQFCVDALNEAIHKFGPPEIMNTDQGSQFTSFAWTDRLRRSGVRISPLAHENMRCRAADGRERSVPPLSWFASKPLSGNGQHLHREAVAHPEIRVRLPACLGDRFGDKGGHPEMDDLLQPPAPAFSPRRQATGAGLLAEKEGHHHHHH	not soluble
MTVPEEAQTLIGKHYRAPDHFLVGREKIREFAVAVKDDHPTHYSEPDAAAAGYPALVAPLTFLAIAGRRVQLEIFTKFNIPINIARVFHRDQKFRFHRPILANDKLYFDTYLDSVIESHGTVLAEIRSEVTDAEGKPVVTSVVTMLGEAAHHEADADATVAAIASILEHHHHHH	soluble
GSEELLDLFNRQVTQEFTASQVYLSASIWFDQNDWEGMAAYMLAESAEEREHGLGFVDFANKRNIPIELQAVPAPVSCAEWSSPEDVWQSILELEQANTRSLLNLAEAASTCHDFAVMAFLNPFHLQQVNEEDKIGSILAKVTDENRTPGLLRSLDVVSFLGPCLFRS	soluble
MFVDKNGVNMEKKLVKQQLLTGERALFASKDLRIEDSIFDDGESPLKESSNIELVNSSFKWKYPLWYCNNVNVKDCYFFEMGRAGVWYTNDINVEDTIIEAPKNFRRCNRLGLKNVEFVNAEETLWSCDNVTMTNVVAKGNYFAMNSNDMKIDGLKLVGNYPFDGSKNLEIRNSRLMSKDAFWNAENITVYDSYISGEYLGWNSKNLTFINCTIESLQGLCYIDNLVMKNCKLINTTLAFEYSTVDADITSRVDSVLNPTSGTITADSIDKLIIEKDKVDPSLTKIVCRN	not soluble
VEAHPSLTLFSQLRIEHEDMAIAEDDWAWLRHKGHLRLGAALDETSPFNVRLDDENYEGITADVATLVGQLLGMRIKVVSFDTHADAVAALAAGKIDLLGSHYSSAGDSSLVLSQPYARDRLAVFKRMGEKRNSPEDLAGLSVAVAREHVGELRQRFPRARFVVFGSHDEAVAAVAFGHTDLYLDDVLSAYHRINRSYYGYVRFERFADARLEGGYGFLLRRGDTNLLRVVNSAIGAINQDRLESIARRWVGSGSLPTGQRIALTPQESRWIARHPVVRLVINDDLAPLAFFNSDETFSGIASDLLDMISRRTGLHFQVTPRSGGFPEQIGVLARKEADLAIMSRSSKREEMLRFTRSFLSTSYVLVTRADDKGRAEIPGSLDGKRIAIPAGHVGMQQVRERYPQASMVEVGVALDAMNLVYEGRADAAVVPLVTARYYIVRLFRERLAIADLVPIGAATAHFAVRRGDAELQSILDKALLSISPDDLSDIVNRW	not soluble
MAEGGGGVGVVYVLENEAYLSKEGGTLKVSRRAGREVLLQKPLIAVEEIVILGNAVVTPALLKHCAQEGVGIHYLSPTGTYYAGLTRTPSKNAPARVAQFKAYLEPTWKLALAQRFVLGKIRNGLVFLRRNGAEGWERLKEALLEAERAQDEEALRGAEGRAADLYFRAFAELLPEEFAFGERSRRPPRDPANSLLSLAYTLLAKECESALLVAGLDPYVGYLHEVRYGRPSLALDLMEEFRSVLADSVVLSLLNNRRVTLEDFDDSEGFPRLRKEAWPKFLRAWEGRLNERIQHPLLGKRLAYREILLAQARILVKHLLGELPRYEPFAVR	soluble
MKAVDQAPKKKSHERKRKEKRVHTGNGTAKKHHKRKSRSKSKNKPKNGLSCCRKKKKKSKKSKSKVTKKQPKKKVIKPLAPVPNEQLGEVVLVKNVKLPETPQKPENDTPVKDGLKPPRTTNSVEKINLSKESFNLSNEKIASDNGTEEKMEKKNVDSPADIQDGLKGKSKQKSEEKVHQKAKDDAKRGDECNKFKISDEKLTKWKLVAQETLKDDANIAVNEFEKVSGYLPPHISKNHFVSNMDKNRFVDVICMDHSRVKLTDSSYIHANWVDLNSSKKAILTQLPLSHTASDFWQMIIDQKIKCVLLIMTDGEFNKFGGNSVFPQNQDFLKFEDRFIRVGEFKQVELGKGWNLKVLSVSNGTYKTFIHVHHYKNWPHGSIPSDVKQIWQVQSYLRKYTDGHPPVYMSMSGCGRAGTFALFETAHMSLHNEQPSLNMVKCLENVRNGRLHSVQNLSQFSVVYTLIAEHVLGNGIGKKDVEEQENSIDNILRQLTIQ	not soluble
MKTTYNRWWKKKVWFGRKDMSYKVIVDSCGEFTPEMKADGGFEHVALGIQIEDTQWTDDDSLKQEELLLKIAESTSCAKTSCPSPERYMESYHCDAERIYVVTLSAELSGSYNSAVLGKNLYEEEYGEKQIHVFNSRSASVGETLIALKVQQCEKAGMTFEEVVESVECYIEEQHTYFVLENLDTLRKNGRLTGIKSLVAGALNIKPIMGSTPQGTICQKEKARGMKKALVKMADCVAADVVNAGDKILAIAHCNCEERAKEVQRLLKERFAVKSSFIVDTSGISTVYANDGGIIVVV	soluble
MAQKSALIILAAEGAEEMEVIITGDVLARGEIRVVYAGLDGAEPVKCARGAHIVPDVKLEDVETEKFDIVILPGGQPGSNTLAESLLVRDVLKSQVESGGLIGAICAAPIALLSHGVKAELVTSHPSVKEKLEKGGYKYSEDRVVVSGKIITSRGPGTAFEFALKIVELLEGKDKATSLIAPMLLKL	not soluble
MQTASVPAGIAERRTRAWAPYIDAKLGFRNHWYPVRLSAEVAEASPVPVQLLGEKVLLNRVDGVVHAIADRCLHRGVTLSDKVECYSKATISCWYHGWTYRWDNGKLVDILTNPTSVQIGRHALKTYPVREEKGLVFLFVGDQEPHDLAEDVPPGFLDADLAVHGQHRVVDANWRMGVENGFDAGHVFIHKSSILLDGNDIALPLGFAPGDPEQLTRSVTGEGAPKGVFDLLGEHSVPIFEATIEGQPAIQGHMGSKMVAISISVWLPGVLKVDPFPDPTLTQFEWYVPIDEGHHLYLQMLGRRVGSEEEARSFEAEFREKWVELALNGFNDDDILARRSMEPFYADDRGWREEVLFESDRAIIEWRRLASQYNRGIQTRDVRHHHHHH	soluble
MGSSHHHHHHSSGLVPRGSHMHMQVTLQVTPPCTQERHYEHLGRCCSRCEPGKYLSSKCTPTSDSVCLPCGPDEYLDTWNEEDKCLLHKVCDAGKALVAVDPGNHTAPRRCACTAGYHWNSDCECCRRNTECAPGFGAQHPLQLNKDTVCTPCLLGFFSDVFSSTDKCKPWTNCTLLGKLEAHQGTTESDVVCSSSMTLRRPPKEAQALEHHHHHH	soluble
SNASDKGKLSLQDVAELIRARACQRVVVMVGAGISTPSGIPDFRSPGSGLYSNLQQYDLPYPEAIFELPFFFHNPKPFFTLAKELYPGNYKPNVTHYFLRLLHDKGLLLRLYTQNIDGLERVSGIPASKLVEAHGTFASATCTVCQRPFPGEDIRADVMADRVPRCPVCTGVVKPDIVFFGEPLPQRFLLHVVDFPMADLLLILGTSLEVEPFASLTEAVRSSVPRLLINRDLVGPLAWHPRSRDVAQLGDVVHGVESLVELLGWTEEMRDLVQRETGKLDGPDK	soluble
MTIEDTVIKLIGSLKDPLLDLTGKEMNLQYKITTSNQAMHVVLTAGYPTSLLETSYKPIVQKIVQDEFPNYQVTISIQQFIKAHKTQLTGKALRGVKNTIAVASGKGGVGKSTVTVNLAAALAKLGARVGILDADIYGPSIPLMLGETKPVQVKDNCYIPVEAHGMQAMSIGYLTDTNQALIWRGPMLAKSLIQMLDITLWNELDYLFIDLPPGTGDIQLTLVQKIPLTSAIVVTTPQNVATLDAQKAITMFSRTGIDVLGIIENMSTHICSHCGHQEAIFGRGGAAALCDAYQCTLLGQLPLDSHVRRHCDEGVPTATHSSNQLTDTFIKTAMRTAIELSKKPINYADRFPKIVVEAAALEHHHHHH	soluble
MTLTMGFIGFGKSANRYHLPYLKTRNNIKVKTIFVRQINEELAAPYEERGVYFTTDLDELLNDKEIQVVTICTPAHTHYELAKKVILAGKSVIVEKPFCDTVEHAKELLALGREKGVVVMPYQNRRFDGDFLAVKQVVEQGFLGDIIEIESHIDYFRPGSITHEAPKEEGSFYSLGIHTMDRMISLFGRPNTVTYDIRNNEVEGAVDNYFDVGLHYGNQLKIKLKTNHIVAKDYPRFIVHGTNGSFIKYGEDQQENDLKAGIMPESAGFGEDSPMYYGIAKYRNANGDWIEKQIKTPLGDYGRFYDAAYDTIVNGAPKLVKDEEAVTNIEILENGFAAPSPSVYKLEALHLNELEHHHHHH	soluble
MAHHHHHHMNSPVVKMKAVKNDVEIDNMKQAHILDGLALLQFFHWCEQKRKTKELFNETEMSLRHKVDYFRSTKKNFIFPSFSTISASGPNAAVIHYECTDKTNATIKPAIYLLDSGGQYLHGTTDVTRTTHFGEPTAEEKRIYTLVLKGHLRLRKVIFASYTNSSALDFIARENLFNNFMDYNHGTGHGVGLTLNVHEGGCSIGPVGGAPLKKNMVLSNEPGYYMKDKFGVRIENMQYVISKEITDTTEYLSFDDLTMYPYEKKLLDFSLLTNQEIKELNEYHTTIRNTLLPLVKQSPQEYGESVEKYLIEITEPIAIHNN	not soluble
MRIVVISLFLFSGVFGRASREAEKKQDTVACGELRDEYVRVCTGANTKRREQKDKDFCNAFENICFSIPEGEPDKAKDAEVTGPRTAAISPESAAAVRGETTGSAHKKTNFARFCKEFKNQYLYVCPDPFRFGQKAIVFCPVYSEKCHVPLPDKPVIPQRKSHRKRGPGGAVNQLCRSYQGFAMNYCNNPILTAQSQYRTACDKYWRFCGKFHQQG	not soluble
